# Target: the molecule itself
# Assay: X-ray crystallography, BAR/acetyl-CoA and BAR/CoA/phosphinothricin complexes
# Procedure: BAR protein was incubated with 1 mM acetyl-CoA for >2 hour prior to setting crystal trays. Crystals of BAR were obtained after 3 days at 20° C. in hanging drops containing 1 μL of protein solution (7.5 mg/ml) and 1 μL of reservoir solution (0.18 M calcium acetate, 0.1 M Tris-HCl pH 7, 18% (w/v) PEG 3000, 0.2% N-nonyl β-D-glucopyranoside, 1 mM acetyl-CoA). Several crystals were soaked in reservoir solution supplemented with 30 mM L-phosphinothricin for 30-60 min before freezing. Crystals were frozen in reservoir solution supplemented with 15% ethylene glycol. […] Co-crystallization screens and soaking experiments were performed using aminoadipate and tryptophan at final concentrations between 5-30 mM. However, we could not identify electron density supporting the presence of these substrates within the resolved crystal structures.
# X-ray diffraction data were collected on the 24-ID-C beam line of the Structural Biology Center at the Advanced Photon Source (Argonne National Laboratory) equipped with a Pixel Array Detector (Pilatus-6MF). […] Initial phases were determined by molecular replacement using Phaser under Phenix (Adams, P. D. et al., Acta Crystallographica. Section D, Biological Crystallo. 66, 213-221, (2010)). […]
protein,measurement,value
"Wildtype bialaphos resistance (BAR) protein from Streptomyces hygroscopicus (enzyme, the entries describe its self-association into a homodimer in the crystal; Expressed in E. coli from pProEX Hta as 6xHis-BAR; Crystallised with acetyl-CoA, or with CoA and phosphinothricin; also called WT BAR; wild-type BAR) MSPERRPADIRRATEADMPAVCTIVNHYIETSTVNFRTEPQEPQEWTDDLVRLRERYPWLVAEVDGEVAGIAYAGPWKARNAYDWTAESTVYVSPRHQRTGLGSTLYTHLLKSLEAQGFKSVVAVIGLPNDPSVRMHEALGYAPRGMLRAAGFKHGNWHDVGFWQLDFSLPVPPRPVLPVTEI",binding result,binds
